Test results taken from patent USRE40850E1.
Values joined by “and” are separate entries in the source; they are usually repeats but may differ in a detail not shown here. Equal values may be shown once.

Target: PTH receptor present on the SaOS-2 (human osteosarcoma cells) (human (SaOS-2 human osteosarcoma cells)) (UniProt Q03431)
Assay: not given

Substance	EC50 (half maximal stimulation of adenylate cyclase, cAMP synthesis in SaOS-2 cells)
[Cha^28]hPTH(1-34)NH2 (from UniProt P01270) (peptide)	2.5 nM
[Cha^7,11, Nle^8,18,31, Aib^16,19, Tyr^34]hPTH(1-34)NH2 (from UniProt P01270) (peptide)	4 nM
[Cha^31]hPTH(1-34)NH2 (from UniProt P01270) (peptide)	4 nM
[Cha^24,28,31, Lys^30]hPTH(1-34)NH2 (from UniProt P01270) (peptide)	7 nM
[Cha^7,11,15]hPTH(1-34)NH2 (from UniProt P01270) (peptide)	1.4 nM
[Cha^7,11, Nle^8,18,31, Aib^34]hPTH(1-34)NH2 (from UniProt P01270) (peptide)	1.5 nM
[Cha^7]hPTH(1-34)NH2 (from UniProt P01270) (peptide)	2.3 nM
[Cha^28,31]hPTH(1-34)NH2 (from UniProt P01270) (peptide)	7 nM
[Cha^24,28,31]hPTH(1-34)NH2 (from UniProt P01270) (peptide)	30 nM
[Dap^1, Nle^8,18, Tyr^34]hPTH(1-34)NH2 (from UniProt P01270) (peptide)	10 nM
[Nle^8,18, Cha^27]hPTH(1-34)NH2 (from UniProt P01270) (peptide)	2 nM
[Cha^24]hPTH(1-34)NH2 (from UniProt P01270) (peptide)	10 nM
[Cha^7,11]hPTH(1-34)NH2 (from UniProt P01270) (peptide)	0.6 nM
[hArg^27]hPTH(1-34)NH2 (from UniProt P01270) (peptide)	1 nM
[Aib^17]hPTH(1-34)NH2 (from UniProt P01270) (peptide)	2 nM and 3 nM
[Cha^23]hPTH(1-34)NH2 (from UniProt P01270) (peptide)	20 nM

Next, values leading:

EC50 (half maximal stimulation of adenylate cyclase, cAMP synthesis in SaOS-2 cells)	Substance
1.1 nM	[Aib^3]hPTH(1-34)NH2 (from UniProt P01270) (peptide)
2 nM	[Cha^7,11, Aib^19, Lys^30]hPTH(1-34)NH2 (from UniProt P01270) (peptide)
1.5 nM	[Cha^7,11, Nle^8,18, Aib^16,19, Tyr^34]hPTH(1-34)NH2 (from UniProt P01270) (peptide)
0.5 nM	[Cha^7,11, Aib^19]hPTH(1-34)NH2 (from UniProt P01270) (peptide)
3 nM	[Aib^34]hPTH(1-34)NH2 (from UniProt P01270) (peptide)
1.1 nM	[Cha^7,11, Aib^16]hPTH(1-34)NH2 (from UniProt P01270) (peptide)
0.6 nM	[Aib^16,19]hPTH(1-34)NH2 (from UniProt P01270) (peptide)
0.6 nM	[Cha^7,11, Nle^8,18, Tyr^34]hPTH(1-34)NH2 (from UniProt P01270) (peptide)
0.6 nM	[Aib^19]hPTH(1-34)NH2 (from UniProt P01270) (peptide)
2 nM	[Cha^11]hPTH(1-34)NH2 (from UniProt P01270) (peptide)
0.7 nM	[Nle^31]hPTH(1-34)NH2 (from UniProt P01270) (peptide)
0.7 nM	[Aib^10]hPTH(1-34)NH2 (from UniProt P01270) (peptide)
1.3 nM	[Cha^15]hPTH(1-34)NH2 (from UniProt P01270) (peptide)

Target: PTH receptor present on the SaOS-2 (human osteosarcoma cells) (human (SaOS-2 human osteosarcoma cells)) (UniProt Q03431)
Assay: displacement of mono-125I-[Nle8,18,Tyr34(3-125I)]bPTH(1-34)NH2 from SaOS-2 cells; Kd defined as half maximal inhibition

Substance	Kd
[Cha^28]hPTH(1-34)NH2 (from UniProt P01270) (peptide)	50 nM
[Cha^7,11, Nle^8,18,31, Aib^16,19, Tyr^34]hPTH(1-34)NH2 (from UniProt P01270) (peptide)	40 nM
[Cha^31]hPTH(1-34)NH2 (from UniProt P01270) (peptide)	30 nM
[Cha^24,28,31, Lys^30]hPTH(1-34)NH2 (from UniProt P01270) (peptide)	500 nM
[Cha^7,11,15]hPTH(1-34)NH2 (from UniProt P01270) (peptide)	10 nM
[Cha^7,11, Nle^8,18,31, Aib^34]hPTH(1-34)NH2 (from UniProt P01270) (peptide)	30 nM
[Cha^7]hPTH(1-34)NH2 (from UniProt P01270) (peptide)	20 nM
[Cha^28,31]hPTH(1-34)NH2 (from UniProt P01270) (peptide)	60 nM
[Cha^24,28,31]hPTH(1-34)NH2 (from UniProt P01270) (peptide)	1000 nM
[Dap^1, Nle^8,18, Tyr^34]hPTH(1-34)NH2 (from UniProt P01270) (peptide)	150 nM
[Nle^8,18, Cha^27]hPTH(1-34)NH2 (from UniProt P01270) (peptide)	50 nM
[Cha^24]hPTH(1-34)NH2 (from UniProt P01270) (peptide)	100 nM
[Cha^7,11]hPTH(1-34)NH2 (from UniProt P01270) (peptide)	10 nM
[hArg^27]hPTH(1-34)NH2 (from UniProt P01270) (peptide)	7 nM
[Aib^17]hPTH(1-34)NH2 (from UniProt P01270) (peptide)	5 nM and 50 nM
[Cha^23]hPTH(1-34)NH2 (from UniProt P01270) (peptide)	200 nM

The remaining lines, values ahead:

Kd	Substance
4 nM	[Aib^3]hPTH(1-34)NH2 (from UniProt P01270) (peptide)
4 nM	[Cha^7,11, Aib^19, Lys^30]hPTH(1-34)NH2 (from UniProt P01270) (peptide)
5 nM	[Cha^7,11, Nle^8,18, Aib^16,19, Tyr^34]hPTH(1-34)NH2 (from UniProt P01270) (peptide)
7 nM	[Cha^7,11, Aib^19]hPTH(1-34)NH2 (from UniProt P01270) (peptide)
7 nM	[Aib^34]hPTH(1-34)NH2 (from UniProt P01270) (peptide)
4 nM	[Cha^7,11, Aib^16]hPTH(1-34)NH2 (from UniProt P01270) (peptide)
4 nM	[Aib^16,19]hPTH(1-34)NH2 (from UniProt P01270) (peptide)
6 nM	[Cha^7,11, Nle^8,18, Tyr^34]hPTH(1-34)NH2 (from UniProt P01270) (peptide)
5 nM	[Aib^19]hPTH(1-34)NH2 (from UniProt P01270) (peptide)
5 nM	[Cha^11]hPTH(1-34)NH2 (from UniProt P01270) (peptide)
4 nM	[Nle^31]hPTH(1-34)NH2 (from UniProt P01270) (peptide)
4 nM	[Aib^10]hPTH(1-34)NH2 (from UniProt P01270) (peptide)
5 nM	[Cha^15]hPTH(1-34)NH2 (from UniProt P01270) (peptide)
